Laboratory results reported in patent US7166691B2, “Saposin C and receptors as targets for treatment of benign and malignant disorders” (priority 2002, dated 2007).

Legend:
prosaposin = conditions: LNCaP and normal prostate stromal cells; 0.1, 1, 10 nM; 24 h
[1] = test system: normal prostate stromal cells; conditions: NaSe 10 μM, 48 h
[2] = test system: enzymes in the MAPK signaling transduction pathway (MEK1/2, p42/44, p90RSK); test: Activation of MAPK signaling transduction pathway (phospho-specific Western); assay type: cell-based, human; conditions: PC-3, DU-145, LNCaP
Protocol: (§1) Cells were grown to 80% confluency by incubating in their respective serum-free basal media for 18 h. For each cell line, tissue culture plates were pre-treated with a specific MEK1/2 inhibitor (U0126, Cat.# 9903, Cell Signaling Technology, Beverly, Mass.) at 10 μM for 1.5 h. Saposin C and TX14A were added at the following concentrations: 0.1, 1.0, and 10 nM. The cells were then incubated at 37° C. for 5 min, washed, and lysed on ice in RIPA buffer supplemented with protease inhibitors and 1 mM sodium orthovandate, as described in S. Koochekpour et al., 1999. Clarified cell lysates were subjected to Western analysis using phospho-specific antibodies against three enzymes in the MAPK Pathway: MEK1/2 (Ser217/22; Cat.# 9121; Cell Signaling Technology, Beverly, Mass.); p90RSK (p90^rsk, Ser380, Cat# 9341, Cell Signaling Technology); and p42/44 MAP Kinases (p44^MAPK, p42^MAPK; Thr202/Tyr204, Cat# 9102; Cell Signaling Technology). Primary antibodies against p42/44 MAP kinase (Cell Signaling Technology) or against tubulin (Cat# 12463, Santa Cruz Biotechnology, Santa Cruz, Calif.) were used as controls. To quantify the difference between the control and the various treatments, the autoradiograms were read on a densitometer, an Alpha Imager 2000 (Alpha Innotech Corp., San Leandro, Calif.).

[3] = test system: breast cancer cells (MCF-7); test: Transwell Matrigel cell invasion assay; assay type: cell-based, human; conditions: saposin C 0.1-10 nM
Protocol: (§2) To test the effect of saposin C on prostatic cell migration and invasion, cell migration and invasion assays were performed using 24-well transwell units with 8-μm polycarbonate filters (Costar, purchased from Becton Dickinson, Bedford, Mass.), as described in S. Koochekpour et al., “Met and […] expression in human glioma,” Cancer Res., vol. 57, pp. 5391–5398 (1997). For invasion assays, transwell filters were coated with 20 μg GFR-Matrigel matrix (Becton Dickenson) in 100 μl of basal medium, and left to air dry overnight. To the lower compartment of each transwell unit, was added 400 μl of basal media supplemented with 0.5% FBS and 0.1% BSA. Saposin C was then added to the lower compartment in the following concentrations: 0 (control), 0.1 nM, 1 nM, and 10 nM.
(§3) Cultured cells were freshly harvested by trypsinization and counted. Approximately 5000 cells were resuspended in 100 μl of serum-free medium With 0.1% BSA, and were placed in the upper compartment of the transwell unit. After 16 h of incubation at 37° C., cells in both the upper and lower compartments were fixed in methanol and stained with Diff-Quick (Dade, Aguada, Puerto Rico). Non-migratory cells in the upper surface of the filter were removed by wiping with a cotton swab. Cells under the filter were counted. The results of cell migration are shown in FIG. 4A; and of cell invasion in FIG. 4B. Each bar represents the mean +/−SEM of three duplicate experiments, and samples from each experiment were counted at least three times.
(§4) To test the effect of saposin C on migration and invasion of non-prostatic cancer cells, assays using human breast cancer cell line (MCF-7), colon cancer cell line (LoVo), and lung cancer cell line (H1299) were performed in 24-well transwell units with polycarbonate filters as described above in Example 5.

[4] = test system: colon cancer cells (LoVo); test: Transwell Matrigel cell invasion assay; assay type: cell-based, human; conditions: saposin C 0.1-10 nM
Protocol: as §2, §3, §4

[5] = test system: lung cancer cells (H1299); test: Transwell Matrigel cell invasion assay; assay type: cell-based, human; conditions: saposin C 0.1-10 nM
Protocol: as §2, §3, §4

[6] = test system: normal prostate epithelial cells; test: Cell proliferation (living cells, trypan blue exclusion); assay type: cell-based, human; conditions: 0.1, 1.0, 10 nM, 2 days
Protocol: To test the effects of saposin C and TX14A on cell proliferation, various cells were cultured as described in Example 1, incubated in only fresh media, or in media supplemented with saposin C or with TX14A at concentrations of 0.1, 1.0, and 10 nM. After incubation for 2 days, the number of living cells was determined by trypan blue exclusion method, as described above in Example 3. The results are shown in FIG. 3, in which each point represents the mean +/−SEM of three duplicate experiments.

[7] = test system: normal prostate epithelial cells; test: Protection from NaSe-induced cell death (trypan blue exclusion); assay type: cell-based, human; conditions: NaSe 10 μM, 48 h
PSA = test: Western blot of supernatant for PSA expression in LNCaP cells; assay type: cell-based, human; conditions: 24 h, at concentrations as low as 0.1 nM
Protocol: To investigate the effect of saposin C on the expression of PSA in LNCaP cells, cells were cultured in the preferred media up to 80% confluency, and then washed twice with PBS. The cells were incubated in serum-free medium supplemented with either testosterone (T), dihydrotestosterone (DHT), saposin C or TX14A at the following concentrations: 0, 0.1, 1 or 10 nM. […] The supernatants were concentrated 5-fold using Centriprep-3 concentrator (Amikon, Beverley, Mass.) and stored frozen in −70° C. until use. A Western blot analysis was performed (as in Examples 2 and 6) using commercially available anti-PSA (Santa Cruz Biotechnology, Santa Cruz, Calif.).

p90RSK = test: Phospho-specific Western, p90RSK; assay type: cell-based, human
Protocol: as §1

[8] = test system: non-prostatic cancer cells (MCF-7, LoVo, H1299); test: Transwell migration and invasion, all cells tested; assay type: cell-based, human
Protocol: as §2
as §3, with “Non-migratory cells in the upper surface of the filter were removed by wiping with a cotton swab.” left out, “The results of cell migration are shown in FIG. 4A; and of cell invasion in FIG. 4B.” left out, “times. […]” for “times.”

PC-3 [9] = test: Transwell cell migration assay; assay type: cell-based, human; conditions: saposin C 0.1-10 nM in lower compartment, 16 h
Protocol: as §2, §3

LNCaP [10] = test: Transwell cell migration assay; assay type: cell-based, human; conditions: saposin C 0.1-10 nM, 16 h
Protocol: as §2, §3

[11] = test system: normal primary prostate epithelial cells; test: Transwell cell migration assay; assay type: cell-based, human; conditions: presence or absence of saposin C
Protocol: as §2, §3

DU-145 [12] = test: Transwell cell migration assay; assay type: cell-based, human; conditions: saposin C 0.1-10 nM, 16 h
Protocol: as §2, §3

MEK1/2 = test: Phospho-specific Western, MEK1/2; assay type: cell-based, human; conditions: normal prostate epithelial cells; 0.1, 1.0, 10 nM
Protocol: as §1

p42/44 MAP Kinases = test: Phospho-specific Western, p42/44 MAP kinases; assay type: cell-based, human
Protocol: as §1

[13] = test system: soluble uPA receptor (uPAR); test: Western blot of supernatant for soluble uPAR; assay type: cell-based, human; conditions: normal prostate stromal cells, PC-3 and DU-145; 0.1, 1.0, 10 nM; 24 h
Protocol: (§5) To investigate the effect of saposin C on expression of both urokinase-type plasminogen activator (uPA) and the soluble uPA receptor (uPAR), normal prostate stromal cells and prostatic cancer cells (PC-3, DU-145, LNCaP) were cultured in media as described in Example 1. The cells were cultured in the preferred media up to 80% confluency, then washed twice with PBS, and incubated for 24 h at 37° C. in serum-free medium supplemented with either 0, 0.1, 1.0 or 10 nM saposin C. At the end of the incubation period, the cell-conditioned medium (Supernatant) was collected. The Supernatants were concentrated 5-fold using Centriprep-3 concentrator (Amikon, Beverley, Mass.), and stored frozen in −70° C. until use.
(§6) A Western blot analysis was performed (as in Examples 2 and 6) using commercially available anti-uPA and anti-uPAR antibodies (Cat# 389 and Cat# 399R, respectively; American Diagnostica Inc., Greenwich, Conn.).

PC-3 cells = test: Protection from NaSe-induced cell death (trypan blue exclusion); assay type: cell-based, human; conditions: NaSe 10 μM, 48 h
[14] = test system: prostate cancer cells and normal prostate cells; test: Protection from NaSe-induced cell death, cell lines overall; assay type: cell-based, human; conditions: dose dependent; NaSe 10 μM; 48 h
[15] = test system: urokinase-type plasminogen activator (uPA); test: Western blot of supernatant for uPA; assay type: cell-based, human; conditions: normal prostate stromal cells, PC-3 and DU-145; 0.1, 1.0, 10 nM; 24 h
Protocol: as §5, §6

DU-145 cells = test: Protection from NaSe-induced cell death (trypan blue exclusion); assay type: cell-based, human; conditions: NaSe 10 μM, 48 h
[16] = test system: prostate (PC-3, DU-145, LNCaP), breast (MCF-7), lung (H1299), and colon (LoVo) cancer cells; test: Cytotoxicity / cell number, all tested cancer cell lines incl. competitive inhibition; assay type: cell-based, human
Protocol: The conjugate of saporin and TX14A was made by special order by Advanced Targeting Systems with a 1:1 molar ratio between the peptide and saporin. Blank-SAP, a non-targeted saporin conjugate, was purchased as a control (ATS, Catalogue# IT-21). Exponentially growing cells were trypsinized and cultured in their complete culture media (1000/well in 96-well plates) as described in Example 1. After 1 day of incubation at 37° C., the culture media were supplemented with either TX14A, saporin, TX14A-saporin (conjugate), Saposin C, TX14A-saporin plus TX14A, or TX14A-Saporin plus Saposin C at the following concentrations: 0, 0.1, 1, 10, 100, 1000 nM. Three days after treatment, cell death was monitored with a Promega (Madison, Wis.) cell titer cytotoxicity kit. Cell counts were normalized to the media controls.

[17] = test system: pro-cathepsin D and cathepsin D; test: Western blot of culture supernatant for cathepsin D expression; assay type: cell-based, human; conditions: LNCaP and normal prostate stromal cells; 0.1, 1, 10 nM; 24 h; compared to control (0 nM)
PC-3 [18] = test: Transwell Matrigel cell invasion assay; assay type: cell-based, human; conditions: saposin C 0.1-10 nM, 16 h
Protocol: as §2, §3

LNCaP [19] = test: Transwell Matrigel cell invasion assay; assay type: cell-based, human; conditions: saposin C 0.1-10 nM, 16 h
Protocol: as §2, §3

DU-145 [20] = test: Transwell Matrigel cell invasion assay; assay type: cell-based, human; conditions: saposin C 0.1-10 nM, 16 h
Protocol: as §2, §3

[21] = test system: breast cancer cells (MCF-7); test: Transwell cell migration assay; assay type: cell-based, human; conditions: saposin C 0.1-10 nM
Protocol: as §2, §3, §4

[22] = test system: colon cancer cells (LoVo); test: Transwell cell migration assay; assay type: cell-based, human; conditions: saposin C 0.1-10 nM
Protocol: as §2, §3, §4

[23] = test system: lung cancer cells (H1299); test: Transwell cell migration assay; assay type: cell-based, human; conditions: saposin C 0.1-10 nM
Protocol: as §2, §3, §4

[24] = normal prostate epithelial cells, decreased at 0.1 nM, increased at 1.0 nM, decreased at 10 nM

## C[C@]12CCC(=O)C[C@@H]1CC[C@@H]1[C@@H]2CC[C@]2(C)[C@@H](O)CC[C@@H]12 [DHT, dihydrotestosterone]
prosaposin
  expression of prosaposin: stimulated the expression

## O=[Se]([O-])[O-].[Na+].[Na+] [NaSe, sodium selenium]
[1]
  toxic effect of NaSe: resistant

## C[C@]12CC[C@H]3[C@@H](CCC4=CC(=O)CC[C@@]43C)[C@@H]1CC[C@@H]2O [T, testosterone]
prosaposin
  expression of prosaposin: stimulated the expression

## N#CC(=C(/N)Sc1ccccc1N)/C(C#N)=C(\N)Sc1ccccc1N [U0126, reference compound]
[2]; U0126 10 μM pre-treatment 1.5 h, stromal
  inhibition of saposin C / TX14A activation of MAPK pathway enzymes: substantially inhibited

B1: saposin C: Human saposin C, about 8–13 kDa protein proteolytically generated from prosaposin; obtained from Professor K. Sandoff (protein, UniProt P07602 311-390, looked up)
Saposin-C: SDVYCEVCEFLVKEVTKLIDNNKTEKEILDAFDKMCSKLPKSLSEECQEVVDTYGSSILSILLEEVSPELVCSMLHLCSG
modifications: Saposin-C
notes: Human saposin C, about 8–13 kDa protein proteolytically generated from prosaposin; obtained from Professor K. Sandoff
[3]
  increase of invasion: 22–36%
[4]
  increase of invasion: 16–37%
[5]
  increase of invasion: 19–195%
[6]
  effect on growth: did not show any effect
[7]
  protection from cell death: Neither Saposin C nor TX14A protected
PSA
  extracellular level of PSA: significantly increased
p90RSK; [24]
  pattern of p90RSK phosphorylation activity: biphasic pattern
p90RSK; normal prostate stromal cells
  pattern of p90RSK activity: biphasic pattern
[8]
  concentration at which the highest migration and invasion was seen: 1 nM
PC-3 [9]
  stimulation of migration: more than 300%
LNCaP [10]
  stimulation of migration: 50%
[11]
  migration through the filter: neither migrated through the filter
DU-145 [12]
  stimulation of migration: 140%
MEK1/2
  expression of MEK1/2 (phospho-MEK1/2 Western): dose-dependent increase
p42/44 MAP Kinases; [24]
  pattern of p42/44 phosphorylation activity: biphasic pattern
p42/44 MAP Kinases; normal prostate stromal cells, densitometry
  increase in p42/44 phosphorylation as compared to the control: 15 fold
[13]
  extracellular level of uPAR: increased
PC-3 cells
  protective effect, difference in the percent cell death with and without saposin C: 55%
[14]
  degree of cell death in the presence of NaSe: decreased the degree of cell death
[15]
  extracellular level of uPA: increased
DU-145 cells
  protective effect, difference in the percent cell death with and without saposin C: 50%
[16]; 0.1-1000 nM, three days, much greater effect in PC-3 and DU-145
  cell proliferation of all cancer cell lines: increased
[16]; equimolar mixture with TX14A-saporin, simultaneous treatment
  effect on TX14A-saporin cytotoxicity in competitive inhibition assays: inhibited in a dose dependent manner
[17]
  expression of pro-cathepsin D (50 kDa band) and active mature cathepsin D (36 kDa band): stimulate expression
[2]; normal prostate stromal cells, nanomolar concentrations, 5 min
  activation of the enzymes in the MAPK signaling transduction pathway: activated
PC-3 [18]
  stimulation of invasion: 100%
LNCaP [19]
  stimulation of invasion: 48%
DU-145 [20]
  stimulation of invasion: 70%
[21]
  increase of migration: 12–59%
[22]
  increase of migration: 22–59%
[23]
  increase of migration: 44–460%
